Assays:
HeLa Kyoto [1] = assay: solubility change mitosis vs G1/S (difference of NP-40 vs SDS log2 ratios) (log2 ratio difference); higher = more soluble in mitosis
HeLa Kyoto [2] = assay: solubility in G1/S (NP-40 vs SDS abundance) (log2 ratio); higher = more soluble; details: cell cycle stage: G1/S
HeLa Kyoto [3] = assay: melting temperature (median over replicates), in situ; higher = more thermally stable
HeLa Kyoto [4] = assay: thermal stability score vs G1/S (z-score of summed log2 fold changes over temperatures); higher = more thermally stable than in G1/S
[5] = cell cycle stage: early G1 (4.5 h after nocodazole release)
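Wherever melting temperature (median over replicates), in situ is given: HeLa Kyoto cells synchronized by double thymidine or nocodazole block, proteins quantified by TMT10plex mass spectrometry, three independent biological replicates.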
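Wherever solubility change mitosis vs G1/S (difference of NP-40 vs SDS log2 ratios) is given: synchronized HeLa Kyoto cells (double thymidine block for G1/S, nocodazole release for mitosis), protein amounts in NP-40 versus SDS lysates quantified by mass spectrometry, three biological replicates.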
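Wherever solubility in G1/S (NP-40 vs SDS abundance) is given: HeLa Kyoto cells arrested at G1/S by double thymidine block, proteins quantified by TMT10plex mass spectrometry in mild NP-40 versus SDS extracts, three biological replicates.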
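Wherever thermal stability score vs G1/S (z-score of summed log2 fold changes over temperatures) is given: synchronized HeLa Kyoto cells, proteins quantified by TMT10plex mass spectrometry, three biological replicates, mitosis taken 0.5 h after nocodazole release, G1/S directly after double thymidine block.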

For “MAAALWGFFPVLLLLLLSGDVQSSEVPGAAAEGSGGSGVGIGDRFKIEGRAVVPGVKPQDWISAARVLVDGEEHVGFLKTDGSFVVHDIPSGSYVVEVVSPAYRFDPVRVDITSKGKMRARYVNYIKTSEVVRLPYPLQMKSSGPPSYFIKRESWGWTDFLMNPMVMMMVLPLLIFVLLPKVVNTSDPDMRREMEQSMNMLNSNHELPDVSEFMTRLFSSKSSGKSSSGSSKTGKSGAGKRR [EMC7]”, the “solubility change mitosis (log2)” value (HeLa Kyoto [1]) was 0.0594, the “solubility in G1/S (log2)” value (HeLa Kyoto [2]) was 0.424 and the melting temperature (HeLa Kyoto [3]; cell cycle stage: G1/S) was 54.4 °C. It also gave a melting temperature (HeLa Kyoto [3]; cell cycle stage: mitosis) of 54.1 °C, a thermal stability score (HeLa Kyoto [4]; [5]) of -1.44 and a thermal stability score (HeLa Kyoto [4]; cell cycle stage: mitosis) of -0.331.
In the case of “MSMEDYDFLFKIVLIGNAGVGKTCLVRRFTQGLFPPGQGATIGVDFMIKTVEINGEKVKLQIWDTAGQERFRSITQSYYRSANALILTYDITCEESFRCLPEWLREIEQYASNKVITVLVGNKIDLAERREVSQQRAEEFSEAQDMYYLETSAKESDNVEKLFLDLACRLISEARQNTLVNNVSSPLPGEGKSISYLTCCNFN [RAB30]”, the “solubility change mitosis (log2)” value (HeLa Kyoto [1]) is reported as -0.0812, the “solubility in G1/S (log2)” value (HeLa Kyoto [2]) is reported as -0.379 and the melting temperature (HeLa Kyoto [3]; cell cycle stage: G1/S) is reported as 51.3 °C. It also gave a melting temperature (HeLa Kyoto [3]; cell cycle stage: mitosis) of 51.7 °C, a thermal stability score (HeLa Kyoto [4]; [5]) of 0.727 and a thermal stability score (HeLa Kyoto [4]; cell cycle stage: mitosis) of 1.4.
“MFAEAAKTTRPCGMAEFKEKPEAPTEQLDVACGQENLPVGAWPPGAAPAPFQYTPDHVVGPGADIDPTQITFPGCICVKTPCLPGTCSCLRHGENYDDNSCLRDIGSGGKYAEPVFECNVLCRCSDHCRNRVVQKGLQFHFQVFKTHKKGWGLRTLEFIPKGRFVCEYAGEVLGFSEVQRRIHLQTKSDSNYIIAIREHVYNGQVMETFVDPTYIGNIGRFLNHSCEPNLLMIPVRIDSMVPKLALFAAKDIVPEEELSYDYSGRYLNLTVSEDKERLDHGKLRKPCYCGAKSCTAFLPFDSSLYCPVEKSNISCGNEKEPSMCGSAPSVFPSCKRLTLETMKMMLDKKQIRAIFLFEFKMGRKAAETTRNINNAFGPGTANERTVQWWFKKFCKGDESLEDEERSGRPSEVDNDQLRAIIEADPLTTTREVAEELNVNHSTVVRHLKQIGKVKKLDKWVPHELTENQKNRRFEVSSSLILRNHNEPFLDRIVTCDEKWILYDNRRRSAQWLDQEEAPKHFPKPILHPKKVMVTIWWSAAGLIHYSFLNPGETITSEKYAQEIDEMNQKLQRLQLALVNRKGPILLHDNARPHVAQPTLQKLNELGYEVLPHPPYSPDLLPTNYHVFKHLNNFLQGKRFHNQQDAENAFQEFVESQSTDFYATGINQLISRWQKCVDCNGSYFD [SETMAR]” was tested, and the “solubility change mitosis (log2)” value (HeLa Kyoto [1]) was -0.0662, the “solubility in G1/S (log2)” value (HeLa Kyoto [2]) was -0.0719 and the melting temperature (HeLa Kyoto [3]; cell cycle stage: G1/S) was 51.9 °C. The melting temperature (HeLa Kyoto [3]; cell cycle stage: mitosis) was 51.7 °C, the thermal stability score (HeLa Kyoto [4]; [5]) was 1.42 and the thermal stability score (HeLa Kyoto [4]; cell cycle stage: mitosis) was 0.689.
In the case of “MKSSVAQIKPSSGHDRRENLNSYQRNSSPEDRYEEQERSPRDRDYFDYSRSDYEHSRRGRSYDSSMESRNRDREKRRERERDTDRKRSRKSPSPGRRNPETSVTQSSSAQDEPATKKKKDELDPLLTRTGGAYIPPAKLRMMQEQITDKNSLAYQRMSWEALKKSINGLINKVNISNISIIIQELLQENIVRGRGLLSRSVLQAQSASPIFTHVYAALVAIINSKFPQIGELILKRLILNFRKGYRRNDKQLCLTASKFVAHLINQNVAHEVLCLEMLTLLLERPTDDSVEVAIGFLKECGLKLTQVSPRGINAIFERLRNILHESEIDKRVQYMIEVMFAVRKDGFKDHPIILEGLDLVEEDDQFTHMLPLEDDYNPEDVLNVFKMDPNFMENEEKYKAIKKEILDEGDTDSNTDQDAGSSEEDEEEEEEEGEEDEEGQKVTIHDKTEINLVSFRRTIYLAIQSSLDFEECAHKLLKMEFPESQTKELCNMILDCCAQQRTYEKFFGLLAGRFCMLKKEYMESFEGIFKEQYDTIHRLETNKLRNVAKMFAHLLYTDSLPWSVLECIKLSEETTTSSSRIFVKIFFQELCEYMGLPKLNARLKDETLQPFFEGLLPRDNPRNTRFAINFFTSIGLGGLTDELREHLKNTPKVIVAQKPDVEQNKSSPSSSSSASSSSESDSSDSDSDSSDSSSESSSEESDSSSISSHSSASANDVRKKGHGKTRSKEVDKLIRNQQTNDRKQKERRQEHGHQETRTERERRSEKHRDQNSSGSNWRDPITKYTSDKDVPSERNNYSRVANDRDQEMHIDLENKHGDPKKKRGERRNSFSENEKHTHRIKDSENFRRKDRSKSKEMNRKHSGSRSDEDRYQNGAERRWEKSSRYSEQSRESKKNQDRRREKSPAKQK [CWC22]”, the “solubility change mitosis (log2)” value (HeLa Kyoto [1]) is reported as 0.227, the “solubility in G1/S (log2)” value (HeLa Kyoto [2]) is reported as -0.707 and the melting temperature (HeLa Kyoto [3]; cell cycle stage: G1/S) is reported as 46.1 °C. It also gave a melting temperature (HeLa Kyoto [3]; cell cycle stage: mitosis) of 49.3 °C, a thermal stability score (HeLa Kyoto [4]; [5]) of 1.24 and a thermal stability score (HeLa Kyoto [4]; cell cycle stage: mitosis) of 2.43.
With “MDFLMSGLAACGACVFTNPLEVVKTRMQLQGELQAPGTYQRHYRNVFHAFITIGKVDGLAALQKGLAPALLYQFLMNGIRLGTYGLAEAGGYLHTAEGTHSPARSAAAGAMAGVMGAYLGSPIYMVKTHLQAQAASEIAVGHQYKHQGMFQALTEIGQKHGLVGLWRGALGGLPRVIVGSSTQLCTFSSTKDLLSQWEIFPPQSWKLALVAAMMSGIAVVLAMAPFDVACTRLYNQPTDAQGKGLMYRGILDALLQTARTEGIFGMYKGIGASYFRLGPHTILSLFFWDQLRSLYYTDTK [SLC25A35]” the “solubility change mitosis (log2)” value (HeLa Kyoto [1]) was -0.137, the “solubility in G1/S (log2)” value (HeLa Kyoto [2]) was 0.0544 and the melting temperature (HeLa Kyoto [3]; cell cycle stage: G1/S) was 56.2 °C. For the same sequence, the melting temperature (HeLa Kyoto [3]; cell cycle stage: mitosis) was 54.3 °C, the thermal stability score (HeLa Kyoto [4]; [5]) was 0.653 and the thermal stability score (HeLa Kyoto [4]; cell cycle stage: mitosis) was -0.326.
With “MAAAVSSVVRRVEELGDLAQAHIQQLSEAAGEDDHFLIRASAALEKLKLLCGEEKECSNPSNLLELYTQAILDMTYFEENKLVDEDFPEDSSSQKVKELISFLSEPEILVKENNMHPKHCNLLGDELLECLSWRRGALLYMYCHSLTKRREWLLRKSSLLKKYLLDGISYLLQMLNYRCPIQLNEGVSFQDLDTAKLLSAGIFSDIHLLAMMYSGEMCYWGSKYCADQQPENHEVDTSVSGAGCTTYKEPLDFREVGEKILKKYVSVCEGPLKEQEWNTTNAKQILNFFHHRCN [C5ORF51]” the “solubility change mitosis (log2)” value (HeLa Kyoto [1]) was -0.0335, the “solubility in G1/S (log2)” value (HeLa Kyoto [2]) was 0.302 and the melting temperature (HeLa Kyoto [3]; cell cycle stage: G1/S) was 49.5 °C. It also gave a melting temperature (HeLa Kyoto [3]; cell cycle stage: mitosis) of 49.9 °C, a thermal stability score (HeLa Kyoto [4]; [5]) of 0.411 and a thermal stability score (HeLa Kyoto [4]; cell cycle stage: mitosis) of 1.04.

— the supplement of paper PMC5998384
